Experimental data published in patent publication US20080249606.

T1: endostatin exposed to Ellagic acid, P39060
T1 chain: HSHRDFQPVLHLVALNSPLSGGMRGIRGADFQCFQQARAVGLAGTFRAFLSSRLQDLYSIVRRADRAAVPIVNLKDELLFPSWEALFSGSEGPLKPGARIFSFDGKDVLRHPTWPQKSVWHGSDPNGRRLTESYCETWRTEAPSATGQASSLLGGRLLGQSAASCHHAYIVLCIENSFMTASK

B1: factor XII (FXII, Calbiochem 233490) (protein)
chain: IPPWEAPKEHKYKAEEHTVVLTVTGEPCHFPFQYHRQLYHKCTHKGRPGPQPWCATTPNFDQDQRWGYCLEPKKVKDHCSKHSPCQKGGTCVNMPSGPHCLCPQHLTGNHCQKEKCFEPQLLRFFHKNEIWYRTEQAAVARCQCKGPDAHCQRLASQACRTNPCLHGGRCLEVEGHRLCHCPVGYTGAFCDVDTKASCYDGRGLSYRGLARTTLSGAPCQPWASEATYRNVTAEQARNWGLGGHAFCRNPDNDIRPWCFVLNRDRLSWEYCDLAQCQTPTQAAPPTPVSPRLHVPLMPAQPAPPKPQPTTRTPPQSQTPGALPAKREQPPSLTRNGPLSCGQRLRKSLSSMTRVVGGLVALRGAHPYIAALYWGHSFCAGSLIAPCWVLTAAHCLQDRPAPEDLTVVLGQERRNHSCEPCQTLAVRSYRLHEAFSPVSYQHDLALLRLQEDADGSCALLSPYVQPVCLPSGAARPSETTLCQVAGWGHQFEGAEEYASFLQEAQVPFLSLERCSAPDVHGSSILPGMLCAGFLEGGTDACQGDSGGPLVCEDQAAERRLTLQGIISWGSGCGDRNKPGVYTDVAYYLAWIREHTVS
B2: tissue-type plasminogen activator (tPA, Actilyse, Boehringer-Ingelheim) (protein)
chain: SYQVICRDEKTQMIYQQHQSWLRPVLRSNRVEYCWCNSGRAQCHSVPVKSCSEPRCFNGGTCQQALYFSDFVCQCPEGFAGKCCEIDTRATCYEDQGISYRGTWSTAESGAECTNWNSSALAQKPYSGRRPDAIRLGLGNHNYCRNPDRDSKPWCYVFKAGKYSSEFCSTPACSEGNSDCYFGNGSAYRGTHSLTESGASCLPWNSMILIGKVYTAQNPSAQALGLGKHNYCRNPDGDAKPWCHVLKNRRLTWEYCDVPSCSTCGLRQYSQPQFRIKGGLFADIASHPWQAAIFAKHRRSPGERFLCGGILISSCWILSAAHCFQERFPPHHLTVILGRTYRVVPGEEEQKFEVEKYIVHKEFDDDTYDNDIALLQLKSDSSRCAQESSVVRTVCLPPADLQLPDWTECELSGYGKHEALSPFYSERLKEAHVRLYPSSRCTSQHLLNRTVTDNMLCAGDTRSGGPQANLHDACQGDSGGPLVCLNDGRMTLVGIISWGLGCGQKDVPGVYTKVTNYLDWIRDNMRP

Columns and labels:
[1] = target: glycated haemoglobin (Hb-AGE), P69905
[2] = target: BSA incubated overnight with dextran sulphate 500,000 Da (DXS500k), P02769
[3] = target: Bovine serum albumin (BSA), P02769
[4] = target: BSA exposed to kaolin, P02769
[5] = target: Gelofusin (Braun Melsungen AG)
[6] = target: endostatin incubated overnight with DXS500k, P39060
[7] = target: endostatin exposed to kaolin, P39060
[8] = target: endostatin, a recombinantly produced fragment of human collagen XVIII (EntreMed), P39060
[9] = target: Gelofusin mixed with lipopolysaccharide (LPS)
[10] = target: Gelofusin mixed with kaolin
[11] = target: BSA exposed to Ellagic acid, P02769
[12] = target: T1, endostatin exposed to Ellagic acid, …
[13] = target: lysozyme exposed to Microlance-3 injection needles, P00698
Chain of lysozyme exposed to Microlance-3 injection needles, P00698 (P00698 19-147): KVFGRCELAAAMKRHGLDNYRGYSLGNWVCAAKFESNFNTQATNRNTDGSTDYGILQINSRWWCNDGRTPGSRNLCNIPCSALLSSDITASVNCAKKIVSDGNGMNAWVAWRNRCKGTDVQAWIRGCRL

Chain of glycated haemoglobin (Hb-AGE), P69905 (P69905 2-142, chain 1 of 2): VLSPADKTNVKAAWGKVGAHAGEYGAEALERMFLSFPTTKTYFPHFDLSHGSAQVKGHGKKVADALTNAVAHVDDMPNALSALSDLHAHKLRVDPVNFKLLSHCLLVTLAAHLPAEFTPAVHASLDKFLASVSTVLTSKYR
Chain of glycated haemoglobin (Hb-AGE), P69905 (chain, as listed by the source, chain 2 of 2): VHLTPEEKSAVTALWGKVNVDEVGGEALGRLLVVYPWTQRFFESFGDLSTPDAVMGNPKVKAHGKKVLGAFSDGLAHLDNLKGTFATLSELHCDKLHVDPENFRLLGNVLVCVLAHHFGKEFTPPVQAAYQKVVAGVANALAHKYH
Chain of BSA exposed to Ellagic acid, P02769 (P02769 25-607): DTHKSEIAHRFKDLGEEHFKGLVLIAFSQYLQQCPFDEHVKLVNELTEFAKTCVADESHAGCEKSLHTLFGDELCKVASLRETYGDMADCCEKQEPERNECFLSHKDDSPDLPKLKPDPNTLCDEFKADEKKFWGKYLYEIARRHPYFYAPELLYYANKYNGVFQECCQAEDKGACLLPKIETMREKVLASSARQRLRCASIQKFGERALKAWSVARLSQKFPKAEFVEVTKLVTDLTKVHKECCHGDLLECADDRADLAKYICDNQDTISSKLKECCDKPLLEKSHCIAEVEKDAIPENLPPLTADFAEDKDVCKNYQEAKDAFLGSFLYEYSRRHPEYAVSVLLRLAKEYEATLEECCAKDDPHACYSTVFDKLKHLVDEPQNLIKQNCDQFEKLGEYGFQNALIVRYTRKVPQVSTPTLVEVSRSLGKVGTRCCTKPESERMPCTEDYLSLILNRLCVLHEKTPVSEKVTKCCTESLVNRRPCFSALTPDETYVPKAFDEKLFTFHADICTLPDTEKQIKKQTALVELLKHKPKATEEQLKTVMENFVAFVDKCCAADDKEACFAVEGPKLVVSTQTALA
Chain of BSA incubated overnight with dextran sulphate 500,000 Da (DXS500k), P02769 (P02769 25-607): as above
Chain of Bovine serum albumin (BSA), P02769 (P02769 25-607): as above
Chain of BSA exposed to kaolin, P02769 (P02769 25-607): as above

| Protein | FXII activation [1] | FXII activation (conversion of Chromozym-PK by kallikrein) [2] | FXII activation (conversion of Chromozym-PK by kallikrein) [3] | FXII activation (conversion of Chromozym-PK by kallikrein) [4] | chromogenic factor XII/prekallikrein activation assay with active enzyme kallikrein read-out [5] | FXII activation (conversion of Chromozym-PK by kallikrein) [6] | FXII activation (conversion of Chromozym-PK by kallikrein) [7] | FXII activation (conversion of Chromozym-PK by kallikrein) [8] | chromogenic factor XII/prekallikrein activation assay with active enzyme kallikrein read-out [9] | chromogenic factor XII/prekallikrein activation assay with active enzyme kallikrein read-out [10] | chromogenic factor XII/prekallikrein activation assay [11] | chromogenic factor XII/prekallikrein activation assay [12] | Plg-activation assay (plasmin substrate S-2251) [13] |
| --- | --- | --- | --- | --- | --- | --- | --- | --- | --- | --- | --- | --- | --- |
| B1 | Presence of cross-β structure conformation in Hb-AGE was conformed by tPA binding, tPA activation, FXII activation | combinations of surface and protein cofactor results in FXII and subsequent prekallikrein activity | Neither BSA or endostatin alone, nor kaolin or DXS500k alone are efficient activators of FXII | combinations of surface and protein cofactor results in FXII and subsequent prekallikrein activity | Gelofusin alone does not stimulate factor XII/prekalikrein activation | combinations of surface and protein cofactor results in FXII and subsequent prekallikrein activity | combinations of surface and protein cofactor results in FXII and subsequent prekallikrein activity | Neither BSA or endostatin alone, nor kaolin or DXS500k alone are efficient activators of FXII | enhanced activity is seen when Gelofusin is mixed with kaolin or LPS | enhanced activity is seen when Gelofusin is mixed with kaolin or LPS | exposure of the proteins to the polyphenol surface induces increased capacity to activate factor XII/prekallikrein | exposure of the proteins to the polyphenol surface induces increased capacity to activate factor XII/prekallikrein | – |
| B2 | – | – | – | – | – | – | – | – | – | – | – | – | When the plasma protein lysozyme is exposed to the stainless steel of a Microlance-3 injection needle, tPA activating properties are induced |
